Results taken from patent US20160153985A1.

Columns and labels:
[1] = target: pure human iC3b (Complement Technology, A115) (human) (UniProt P01024); assay: sandwich ELISA, capture A209 (Example 5), goat anti-C3-HRP; TABLE 6 well C6, 30% vitreous
[2] = target: pure human iC3b (Complement Technology, A115) (human) (UniProt P01024); assay: sandwich ELISA, capture A209 (Example 5), goat anti-C3-HRP; TABLE 6 well H5, 10% vitreous
[3] = target: pure human iC3b (Complement Technology, A115) (human) (UniProt P01024); assay: sandwich ELISA, capture A209 (Example 5), goat anti-C3-HRP; TABLE 6 well F8, 20% vitreous
[4] = target: pure human iC3b (Complement Technology, A115) (human) (UniProt P01024); assay: sandwich ELISA, capture A209 (Example 5), goat anti-C3-HRP; TABLE 6 well G4, 10% vitreous
[5] = target: pure human iC3b (Complement Technology, A115) (human) (UniProt P01024); assay: sandwich ELISA, capture A209 (Example 5), goat anti-C3-HRP; TABLE 6 well G3, 10% vitreous
[6] = target: pure human iC3b (Complement Technology, A115) (human) (UniProt P01024); assay: sandwich ELISA, capture A209 (Example 5), goat anti-C3-HRP; TABLE 6 well H4, 10% vitreous
[7] = target: pure human iC3b (Complement Technology, A115) (human) (UniProt P01024); assay: sandwich ELISA, capture A209 (Example 5), goat anti-C3-HRP; TABLE 7, iC3b in 10% vitreous
[8] = target: pure human iC3b (Complement Technology, A115) (human) (UniProt P01024); assay: sandwich ELISA, capture A209 (Example 5), goat anti-C3-HRP; TABLE 6 well C4, 30% vitreous
[9] = target: pure human iC3b (Complement Technology, A115) (human) (UniProt P01024); assay: sandwich ELISA, capture A209 (Example 5), goat anti-C3-HRP; TABLE 6 well C9, 30% vitreous
[10] = target: pure human iC3b (Complement Technology, A115) (human) (UniProt P01024); assay: sandwich ELISA, capture A209 (Example 5), goat anti-C3-HRP; TABLE 6 well C7, 30% vitreous
[11] = target: pure human iC3b (Complement Technology, A115) (human) (UniProt P01024); assay: sandwich ELISA, capture A209 (Example 5), goat anti-C3-HRP; TABLE 6 well E7, 20% vitreous
[12] = target: pure human iC3b (Complement Technology, A115) (human) (UniProt P01024); assay: sandwich ELISA of Example 5, iC3b concentration labeled 0.0125 in 20% human vitreous, duplicate 2
[13] = target: pure human iC3b (Complement Technology, A115) (human) (UniProt P01024); assay: sandwich ELISA, capture A209 (Example 5), goat anti-C3-HRP; TABLE 6 well D2, 30% vitreous
[14] = target: pure human iC3b (Complement Technology, A115) (human) (UniProt P01024); assay: sandwich ELISA, capture A209 (Example 5), goat anti-C3-HRP; TABLE 6 well E8, 20% vitreous
[15] = target: pure human iC3b (Complement Technology, A115) (human) (UniProt P01024); assay: sandwich ELISA, capture A209 (Example 5), goat anti-C3-HRP; TABLE 6 well D8, 30% vitreous
[16] = target: pure human iC3b (Complement Technology, A115) (human) (UniProt P01024); assay: sandwich ELISA, capture A209 (Example 5), goat anti-C3-HRP; TABLE 6 well G8, 10% vitreous
[17] = target: pure human iC3b (Complement Technology, A115) (human) (UniProt P01024); assay: sandwich ELISA, capture A209 (Example 5), goat anti-C3-HRP; TABLE 6 well B5, blocker
[18] = target: pure human iC3b (Complement Technology, A115) (human) (UniProt P01024); assay: sandwich ELISA, capture A209 (Example 5), goat anti-C3-HRP; TABLE 6 well H2, 10% vitreous
[19] = target: pure human iC3b (Complement Technology, A115) (human) (UniProt P01024); assay: sandwich ELISA, capture A209 (Example 5), goat anti-C3-HRP; TABLE 6 well A9, blocker
[20] = target: pure human iC3b (Complement Technology, A115) (human) (UniProt P01024); assay: sandwich ELISA, capture A209 (Example 5), goat anti-C3-HRP; TABLE 6 well C8, 30% vitreous
[21] = target: pure human iC3b (Complement Technology, A115) (human) (UniProt P01024); assay: sandwich ELISA, capture A209 (Example 5), goat anti-C3-HRP; TABLE 6 well A7, blocker
[22] = target: pure human iC3b (Complement Technology, A115) (human) (UniProt P01024); assay: sandwich ELISA of Example 5, iC3b concentration labeled 0.0125 in 20% human vitreous, mean of duplicates less background
[23] = target: pure human iC3b (Complement Technology, A115) (human) (UniProt P01024); assay: sandwich ELISA, capture A209 (Example 5), goat anti-C3-HRP; TABLE 6 well E3, 20% vitreous
[24] = target: pure human iC3b (Complement Technology, A115) (human) (UniProt P01024); assay: sandwich ELISA, capture A209 (Example 5), goat anti-C3-HRP; TABLE 6 well F4, 20% vitreous
[25] = target: pure human iC3b (Complement Technology, A115) (human) (UniProt P01024); assay: sandwich ELISA, capture A209 (Example 5), goat anti-C3-HRP; TABLE 6 well E4, 20% vitreous

Sequence of UniProt P01024 (P01024 23-667 limits assumed, chain 1 of 3): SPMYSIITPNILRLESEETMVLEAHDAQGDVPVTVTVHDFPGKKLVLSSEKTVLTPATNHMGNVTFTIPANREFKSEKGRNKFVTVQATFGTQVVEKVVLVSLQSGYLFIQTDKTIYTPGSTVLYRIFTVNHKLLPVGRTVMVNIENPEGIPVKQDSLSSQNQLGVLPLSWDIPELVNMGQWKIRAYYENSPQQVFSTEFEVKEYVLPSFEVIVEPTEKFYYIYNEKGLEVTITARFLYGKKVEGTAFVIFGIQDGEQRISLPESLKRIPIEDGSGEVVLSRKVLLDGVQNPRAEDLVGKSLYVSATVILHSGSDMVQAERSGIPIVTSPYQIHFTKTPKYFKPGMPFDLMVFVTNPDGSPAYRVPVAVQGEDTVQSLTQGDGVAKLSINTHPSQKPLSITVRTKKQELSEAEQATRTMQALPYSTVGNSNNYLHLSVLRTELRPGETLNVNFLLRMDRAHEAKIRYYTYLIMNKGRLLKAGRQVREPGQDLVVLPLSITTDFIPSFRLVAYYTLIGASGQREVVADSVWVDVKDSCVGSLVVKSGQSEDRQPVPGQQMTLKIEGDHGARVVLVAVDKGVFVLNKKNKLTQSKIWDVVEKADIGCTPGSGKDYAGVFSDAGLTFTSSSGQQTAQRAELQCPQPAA
Sequence of UniProt P01024 (P01024 749-1303 limits assumed, chain 2 of 3): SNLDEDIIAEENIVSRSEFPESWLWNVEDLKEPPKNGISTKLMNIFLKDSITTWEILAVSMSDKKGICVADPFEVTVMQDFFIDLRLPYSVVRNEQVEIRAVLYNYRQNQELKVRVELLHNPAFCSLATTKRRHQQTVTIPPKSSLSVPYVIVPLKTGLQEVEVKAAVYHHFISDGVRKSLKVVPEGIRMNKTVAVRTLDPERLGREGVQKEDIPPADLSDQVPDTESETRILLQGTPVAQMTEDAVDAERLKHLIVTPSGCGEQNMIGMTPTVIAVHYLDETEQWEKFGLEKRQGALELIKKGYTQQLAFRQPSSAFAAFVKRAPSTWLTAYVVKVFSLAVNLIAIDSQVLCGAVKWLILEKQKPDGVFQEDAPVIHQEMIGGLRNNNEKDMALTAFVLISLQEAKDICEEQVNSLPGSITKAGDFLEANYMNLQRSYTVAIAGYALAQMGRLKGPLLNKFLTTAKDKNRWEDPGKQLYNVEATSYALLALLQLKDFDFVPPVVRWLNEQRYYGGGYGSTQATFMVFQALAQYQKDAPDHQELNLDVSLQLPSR
Sequence of UniProt P01024 (P01024 1321-1663 limits assumed, chain 3 of 3): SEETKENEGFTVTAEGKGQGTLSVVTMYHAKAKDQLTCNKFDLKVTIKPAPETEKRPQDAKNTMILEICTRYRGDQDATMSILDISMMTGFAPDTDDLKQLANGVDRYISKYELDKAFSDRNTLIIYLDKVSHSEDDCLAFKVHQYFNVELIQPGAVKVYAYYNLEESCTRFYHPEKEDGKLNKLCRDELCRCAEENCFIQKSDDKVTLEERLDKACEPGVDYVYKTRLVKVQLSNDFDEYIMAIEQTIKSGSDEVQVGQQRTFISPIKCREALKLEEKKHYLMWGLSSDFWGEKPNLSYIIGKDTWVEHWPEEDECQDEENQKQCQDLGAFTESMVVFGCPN

mouse anti-iC3b antibody A209 (Quidel) was tested, and the raw A450 at iC3b 0.063 ug/ml [1] was 0.375 OD, the raw A450 at iC3b 0.125 ug/ml [2] was 0.3 OD and the raw A450 at iC3b 0.016 ug/ml [3] was 0.318 OD. For the same substance, the raw A450 at iC3b 0.25 ug/ml [4] was 0.28 OD, the raw A450 at iC3b 0.5 ug/ml [5] was 0.385 OD and the raw A450 at iC3b 0.25 ug/ml [6] was 0.283 OD. The A450 minus matrix average at iC3b 0.0078 ug/ml [7] was -0.008 OD, the A450 minus matrix average at iC3b 0.016 ug/ml [7] was 0.006 OD and the A450 minus matrix average at iC3b 0.031 ug/ml [7] was 0.014 OD. It also gave an A450 minus matrix average at iC3b 0.063 ug/ml [7] of 0.017 OD, an A450 minus matrix average at iC3b 0.125 ug/ml [7] of 0.062 OD and an A450 minus matrix average at iC3b 0.25 ug/ml [7] of 0.056 OD. For the same substance, the A450 minus matrix average at iC3b 0.5 ug/ml [7] was 0.125 OD, the A450 minus matrix average at iC3b 1 ug/ml [7] was 0.239 OD and the raw A450 at iC3b 0.25 ug/ml [8] was 0.391 OD. It also gave a raw A450 at iC3b 0.0078 ug/ml [9] of 0.368 OD, a raw A450 at iC3b 0.031 ug/ml [10] of 0.355 OD and a raw A450 at iC3b 0.031 ug/ml [11] of 0.339 OD. For the same substance, the absorbance A450, raw [12] was 0.384 A450, the raw A450 at iC3b 1 ug/ml [13] was 0.453 OD and the raw A450 at iC3b 0.016 ug/ml [14] was 0.321 OD. For the same substance, the raw A450 at iC3b 0.016 ug/ml [15] was 0.355 OD, the raw A450 at iC3b 0.016 ug/ml [16] was 0.227 OD and the raw A450 at iC3b 0.125 ug/ml [17] was 0.1 OD. For the same substance, the raw A450 at iC3b 1 ug/ml [18] was 0.42 OD, the raw A450 at iC3b 0.0078 ug/ml [19] was 0.035 OD and the raw A450 at iC3b 0.016 ug/ml [20] was 0.336 OD. For the same substance, the raw A450 at iC3b 0.031 ug/ml [21] was 0.053 OD, the net absorbance A450 (matrix only value 0.328 subtracted) [22] was 0.049 A450 and the raw A450 at iC3b 0.5 ug/ml [23] was 0.442 OD. The raw A450 at iC3b 0.25 ug/ml [24] was 0.435 OD and the raw A450 at iC3b 0.25 ug/ml [25] was 0.411 OD.
